Results reported in patent publication US20250092146A1 (ABILITA BIO, published 2025).

T1: human CCR7 (hCCR7) (human, UniProt P32248 25-378)
T1 construct: HEK293 cells stably expressing hCCR7
T1 sequence: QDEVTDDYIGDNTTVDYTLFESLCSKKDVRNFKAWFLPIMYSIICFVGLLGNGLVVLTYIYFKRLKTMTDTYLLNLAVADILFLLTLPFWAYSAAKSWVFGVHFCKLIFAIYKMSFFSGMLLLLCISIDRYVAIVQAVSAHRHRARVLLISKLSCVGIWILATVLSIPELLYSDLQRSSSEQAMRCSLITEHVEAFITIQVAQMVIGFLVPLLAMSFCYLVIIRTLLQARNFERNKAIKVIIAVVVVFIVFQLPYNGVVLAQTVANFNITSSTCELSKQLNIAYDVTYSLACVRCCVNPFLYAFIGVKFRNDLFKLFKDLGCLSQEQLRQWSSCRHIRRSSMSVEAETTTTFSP


Key:
[1] = biological target: T2, Chimera A (hCCR8 with its N-terminus replaced by amino acids 1-22 of hCCR1) (human (hCCR8/hCCR1 chimera), UniProt P51685 18-355); assay: flow cytometry (MFI), HEK293T cells expressing Chimera A (hCCR8 with hCCR1 N-terminus)
T2 construct: Transiently transfected HEK293T cells
T2 sequence (P51685 other isoform, or with tags, fused parts or gaps mutant): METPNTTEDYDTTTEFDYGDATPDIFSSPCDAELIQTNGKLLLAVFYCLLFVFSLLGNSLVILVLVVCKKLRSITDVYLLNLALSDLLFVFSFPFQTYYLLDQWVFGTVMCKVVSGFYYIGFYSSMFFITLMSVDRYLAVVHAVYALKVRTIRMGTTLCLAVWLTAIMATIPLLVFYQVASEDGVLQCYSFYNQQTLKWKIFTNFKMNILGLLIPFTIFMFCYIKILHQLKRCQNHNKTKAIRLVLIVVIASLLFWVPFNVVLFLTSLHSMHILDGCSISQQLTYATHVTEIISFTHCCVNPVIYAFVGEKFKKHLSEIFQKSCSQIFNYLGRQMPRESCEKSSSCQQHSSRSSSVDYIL
Source text: Determination of binding epitope location on hCCR8 was done for representative VHH-Fc antibodies by flow cytometry analysis using HEK293T cells expressing hCCR8 or two receptor chimeras comprised of combined sequence elements taken from hCCR8 (SEQ ID NO: 37) and hCCR1 (SEQ ID NO: 39). In the first, Chimera A based on hCCR8, the N-terminal region of the receptor (SEQ ID NO: 38) was replaced with a sequence encoding the N-terminal region of hCCR1 (SEQ ID NO: 40). In Chimera B based on hCCR1, the N-terminal region of the receptor was replaced by the sequence encoding the hCCR8 N-terminus (SEQ ID NO: 38).

human CCR7 (hCCR7) = biological target: T1, human CCR7 (hCCR7); assay: flow cytometry, HEK293 cells stably expressing hCCR7, anti-VHH detection
Description: Recombinant cells expressing hCCR8 were resuspended to a final concentration of 1.0×10⁶ cells/ml in FACS buffer. […] Dilutions of purified VHHs were incubated with cells for 60 min. Individual samples were distributed into 96-well v-bottom plates and incubated for one hour at 4° C. […] Binding was determined in parallel on HEK293 cells stably expressing the closely related receptor hCCR7 (SEQ ID NO: 41), as control for binding specificity.

human CCR8 (hCCR8) [2] = biological target: T3, human CCR8 (hCCR8) (human, UniProt P51685 1-355); assay: competition with 10 nM VHH-1-Fc, flow cytometry on HEK293-hCCR8 cells
T3 construct: On transfected HEK293/HEK293T cells, or naturally expressed on HuT-78 cells; also called C-C chemokine receptor type 8
T3 sequence (P51685 whole entry): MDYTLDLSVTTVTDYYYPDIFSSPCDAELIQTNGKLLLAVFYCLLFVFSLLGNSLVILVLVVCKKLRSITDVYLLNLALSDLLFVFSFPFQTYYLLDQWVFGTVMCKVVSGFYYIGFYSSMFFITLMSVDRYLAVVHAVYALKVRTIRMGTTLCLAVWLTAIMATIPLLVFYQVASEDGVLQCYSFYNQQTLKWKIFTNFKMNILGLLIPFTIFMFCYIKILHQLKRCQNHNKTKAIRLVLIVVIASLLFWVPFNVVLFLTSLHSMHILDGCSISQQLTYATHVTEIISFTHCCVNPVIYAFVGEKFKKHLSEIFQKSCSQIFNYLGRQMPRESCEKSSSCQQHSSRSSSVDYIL
Description: Binding studies were conducted on hCCR8 expressing cells for 60 minutes at 4° C., followed by two washes and then 30 minutes incubation at 4° C. with the Zenon R-Phycoerythrin Anti-human IgG secondary antibody (ThermoFisher Scientific, #Z-25455). Binding to cells was assessed by flow cytometry.

human CCR8 (hCCR8) [3] = biological target: T3, human CCR8 (hCCR8); assay: cell-based or functional assay

Binder | EC50 (nM), ADCC reporter assay, mouse FcγRIV effector cells, HuT-78 target cells (human CCR8 (hCCR8) [3]) [nM] | Fold Induction, ADCC reporter assay, mouse FcγRIV effector cells, HuT-78 target cells (human CCR8 (hCCR8) [3]) [fold] | further results
BMS-4A19 (antibody, human IgG1, kappa, Comparator from WO2021194942A1, made in HEK293 cells) heavy: not shown light: DIVMTQTPLSLSVTPGQPASISCRSSQSLFHSSGNTYLHWYLQKPGQPPQLLIYKVSNRFSGVPDRFSGSGSGTDFTLKISRVEAEDVGVYYCSQSTHVPFTFGQGTKLEIKRTVAAPSVFIFPPSDEQLKSGTASVVCLLNNFYPREAKVQWKVDNALQSGNSQESVTEQDSKDSTYSLSSTLTLSKADYEKHKVYACEVTHQGLSSPVTKSFNRGEC | – | – | binding result [1]: no binding
VHH-1 (VHH, not shown: small tags and cut ends, Monovalent VHH purified from E. coli periplasm (PelB signal peptide)) VHH: QVQLQESGGGLVQAGGSLRLSCVASGSTSSIRRIGWYRQAPGKQRELVARFSSGGGTNYADFVKGRFTISGDNAKNTMYLQMNSLKPEDTAVYYCSARRLLGTSRVDYWGQGTQVTVSS | – | – | binding result (human CCR7 (hCCR7)): no binding
VHH-3 (VHH, not shown: small tags and cut ends, Monovalent VHH purified from E. coli periplasm (PelB signal peptide)) VHH: QVQLQESGGGLVQAGGSLRLSCVASGSTSSIRRIGWYRQAPGKQRELVARFSSGGGTNYADFVKGRFTISGDNAKNTMYLQMNSLKPEDTAVYYCGARRLLGTSRVDYWGQGTQVTVSS | – | – | binding result (human CCR7 (hCCR7)): no binding
CCL1 (ligand, UniProt P22362 24-96, looked up, also called hCCR8 agonist CCL1) KSMQVPFSRCCFSFAEQEIPLRAILCYRNTSSICSNEGLIFKLKRGKEACALDTVGWVQRHRKMLRHCPSKRK | – | – | binding result (human CCR8 (hCCR8) [2]): binds
VHH-1.3-7-mFc (Fc fusion) EVQLVESGGGLVQPGGSLRLSCAVSGSTSSIRRIGWYRQAPGKGRELVAHFSSGGGTNYADSVKGRFTISGDKSKNTMYLQMNSLRAEDTAVYYCSARRLLGTSRVDYWGQGTTVTVSSEPRGPTIKPCPPCKCPAPNLLGGPSVFIFPPKIKDVLMISLSPIVTCVVVDVSEDDPDVQISWFVNNVEVHTAQTQTHREDYNSTLRVVSALPIQHQDWMSGKEFKCKVNNKDLPAPIERTISKPKGSVRAPQVYVLPPPEEEMTKKQVTLTCMVTDFMPEDIYVEWTNNGKTELNYKNTEPVLDSDGSYFMYSKLRVEKKNWVERNSYSCSVVHEGLHNHHTTKSFSRTPGK | 0.007 | 12 | –
VHH-1.3-21-mFc (Fc fusion) EVQLVESGGGLVQPGGSLRLSCAVSGSTSSIRGIGWYRQAPGKGRELVARFISGGGTNYADSVKGRFTISADNSKNTMYLQMNSLRAEDTAVYYCSARRLLGTSRVDYWGQGTQVTVSSEPRGPTIKPCPPCKCPAPNLLGGPSVFIFPPKIKDVLMISLSPIVTCVVVDVSEDDPDVQISWFVNNVEVHTAQTQTHREDYNSTLRVVSALPIQHQDWMSGKEFKCKVNNKDLPAPIERTISKPKGSVRAPQVYVLPPPEEEMTKKQVTLTCMVTDFMPEDIYVEWTNNGKTELNYKNTEPVLDSDGSYFMYSKLRVEKKNWVERNSYSCSVVHEGLHNHHTTKSFSRTPGK | 0.042 | 11.4 | –
VHH-1.3-19-mFc (Fc fusion) EVQLVESGGGLVQPGGSLRLSCAVSGSTSSIRGIGWYRQAPGKGRELVAHFSSGGGTNYADSVKGRFTISGDKSKNTMYLQMNSLRAEDTAVYYCSARRLLGTSRVDYWGQGTQVTVSSEPRGPTIKPCPPCKCPAPNLLGGPSVFIFPPKIKDVLMISLSPIVTCVVVDVSEDDPDVQISWFVNNVEVHTAQTQTHREDYNSTLRVVSALPIQHQDWMSGKEFKCKVNNKDLPAPIERTISKPKGSVRAPQVYVLPPPEEEMTKKQVTLTCMVTDFMPEDIYVEWTNNGKTELNYKNTEPVLDSDGSYFMYSKLRVEKKNWVERNSYSCSVVHEGLHNHHTTKSFSRTPGK | 0.024 | 11.3 | –
VHH-1.3-20-mFc (Fc fusion) EVQLVESGGGLVQPGGSLRLSCAVSGSTSSIRGIGWYRQAPGKGRELVARFISGGGTNYADSVKGRFTISGDNSKNTMYLQMNSLRAEDTAVYYCSARILLGTSRVDYWGQGTQVTVSSEPRGPTIKPCPPCKCPAPNLLGGPSVFIFPPKIKDVLMISLSPIVTCVVVDVSEDDPDVQISWFVNNVEVHTAQTQTHREDYNSTLRVVSALPIQHQDWMSGKEFKCKVNNKDLPAPIERTISKPKGSVRAPQVYVLPPPEEEMTKKQVTLTCMVTDFMPEDIYVEWTNNGKTELNYKNTEPVLDSDGSYFMYSKLRVEKKNWVERNSYSCSVVHEGLHNHHTTKSFSRTPGK | 0.345 | 9.74 | –
VHH-1-mFc (Fc fusion) QVQLQESGGGLVQAGGSLRLSCVASGSTSSIRRIGWYRQAPGKQRELVARFSSGGGTNYADFVKGRFTISGDNAKNTMYLQMNSLKPEDTAVYYCSARRLLGTSRVDYWGQGTQVTVSSEPRGPTIKPCPPCKCPAPNLLGGPSVFIFPPKIKDVLMISLSPIVTCVVVDVSEDDPDVQISWFVNNVEVHTAQTQTHREDYNSTLRVVSALPIQHQDWMSGKEFKCKVNNKDLPAPIERTISKPKGSVRAPQVYVLPPPEEEMTKKQVTLTCMVTDFMPEDIYVEWTNNGKTELNYKNTEPVLDSDGSYFMYSKLRVEKKNWVERNSYSCSVVHEGLHNHHTTKSFSRTPGK | 0.015 | 12 | –
